Reference: IntAct's records for PubMed 18728196

Target: pstp_myctu pstP (UniProt P9WHW5)

Q: How did the “effect of a mutation on the interaction” value turn out when “ECF RNA polymerase sigma factor SigH (Mycobacterium tuberculosis (strain ATCC 25618 / H37Rv)), P9WGH9 T26A;T106A” was run?
A: Its value is “disrupting interaction”.
